Three molecules from paper PMC11317129, “Bacterial histone HBb from Bdellovibrio bacteriovorus compacts DNA by bending” (Nucleic Acids Research, 2023) can be followed below.

Data set [1] concerns the target T1, HBb (Bd0055) (Bdellovibrio bacteriovorus HD100, UniProt Q6MRM1 1-64).
T1 sequence: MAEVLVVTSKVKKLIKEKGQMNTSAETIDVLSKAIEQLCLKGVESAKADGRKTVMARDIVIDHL
Description: MST; unit printed as M (symbol lost); 10 nM DNA; MST: 20 mM Tris pH 8.0, 150 mM NaCl, 2.5 mM 2-mercaptoethanol, 37 C 10 min (HMfB RT 5 min); EMSA 80 bp: 25 mM Tris pH 8.0, 50 mM NaCl, 50 mM KCl, 37 C; ladder EMSA/MNase/circularization: 50 mM Tris pH 7.0, 75 mM KCl, RT. To be noted: protein: recombinant; tags: N-terminal His6 (vector pETHis1a); chain copies: 2; label: 5' Cy5 on strand 1; blunt. A general note: A gel shift assay detects complexes by their altered migration in electrophoresis.

Another data set deals with HMfB (Methanothermus fervidus, UniProt P19267 1-69). The data set is described as follows: MST; unit printed as M (symbol lost); 20 nM in HMfB titration; MST: 20 mM Tris pH 8.0, 150 mM NaCl, 2.5 mM 2-mercaptoethanol, 37 C 10 min (HMfB RT 5 min); EMSA 80 bp: 25 mM Tris pH 8.0, 50 mM NaCl, 50 mM KCl, 37 C; ladder EMSA/MNase/circularization: 50 mM Tris pH 7.0, 75 mM KCl, RT. To be noted: protein: recombinant; tags: N-terminal His6 (vector pET28a); chain copies: 4; label: 5' Cy5 on strand 1; blunt.
Chain of HMfB (P19267 whole entry): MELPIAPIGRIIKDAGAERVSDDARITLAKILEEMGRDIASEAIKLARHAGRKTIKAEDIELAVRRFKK

Data set [2] concerns the molecule itself. Description: SEC-MALS; purified HBb in solution; 1260 Infinity II HPLC with miniDAWN TREOS and Optilab T-rEX detectors. (SEC sorts molecules by how far they enter the pores of the column.)
Data set [3] concerns the target T1, HBb (Bd0055). Description: MST; unit printed as M (symbol lost); text says lower micromolar; 10 nM DNA; MST: 20 mM Tris pH 8.0, 150 mM NaCl, 2.5 mM 2-mercaptoethanol, 37 C 10 min (HMfB RT 5 min); EMSA 80 bp: 25 mM Tris pH 8.0, 50 mM NaCl, 50 mM KCl, 37 C; ladder EMSA/MNase/circularization: 50 mM Tris pH 7.0, 75 mM KCl, RT. To be noted: protein: recombinant; tags: N-terminal His6 (vector pETHis1a); chain copies: 2; label: 5' Cy5 on strand 1; blunt.

B1: 80 bp-GC50 [Cy5] (dsDNA)
DNA 1: TTAAAGCCCGTTAAAGCCCGTTAAAGCCCGTTAAAGCCCGTTAAAGCCCGTTAAAGCCCGTTAAAGCCCGTTAAAGCCCG
DNA 2: CGGGCTTTAACGGGCTTTAACGGGCTTTAACGGGCTTTAACGGGCTTTAACGGGCTTTAACGGGCTTTAACGGGCTTTAA
Broadly, the Kd is the constant that tells how readily two partners part at equilibrium. B1: the Kd worked out at 11.1 ± 1.07 µM in the data set with HBb (Bd0055) [1] and 3.92 ± 1.16 µM with HMfB.

B2: bacterial histone HBb (Histone of B. bacteriovorus) (natural protein, Bdellovibrio bacteriovorus)
chain: T1 sequence
notes: theoretical molecular weight 7 kDa; Homodimer by SEC-MALS and in the crystals; also called Bd0055
As usually defined, the stoichiometry N is the number of molecules, sites or subunits per partner or assembly. For the molecule B2, the “stoichiometry N” value in data set [2] amounted to 2.

B3: 80 bp DNA [Cy5] (dsDNA)
DNA 1: CCGTACTGTCGTCTGCGGCCTTTGATTATCAATTAAAGCGTTCTACGGCGTTTTTGATCGCTCAACGTGCGGAGCTAGAT
DNA 2: ATCTAGCTCCGCACGTTGAGCGATCAAAAACGCCGTAGAACGCTTTAATTGATAATCAAAGGCCGCAGACGACAGTACGG
Turning to B3, the results for the Kd with HBb (Bd0055) [3] and with HMfB were 4.84 ± 0.97 µM and 0.83 ± 0.27 µM, respectively.
